{"source": "patent US20250295798A1", "about": "(BEIGENE SWITZERLAND, published 2025)", "key": {"hHER3-his": {"target": "T1, hHER3-his (human, UniProt P21860 20-643)", "T1 construct": "Bought reagent; also called Her3-his (cat10201-H08H, SinoBiological); not shown: his tag", "experiment": "SPR (BIAcore 8K), mAb captured by anti-human Fc, Her3-his as analyte, 1:1 Langmuir fit, 25 C", "description": "Binding kinetics of the mAbs to the target was determined by SPR on a BIAcore 8K (GE Healthcare). The running buffer, 10 mM HEPES, 150 mM NaCl, 0.05% v/v Surfactant P20, 3 mM EDTA, pH 7.4 (HBS-EP+, GE Healthcare) was used for immobilization and reagent dilutions. All binding kinetics were measured at 25° C. For each injection cycle, mAbs were first captured in different flow cells with an anti-human Fc antibody (Human Antibody Capture Kit, GE Healthcare) immobilized to the sensor chip (Series S CM5, GE Healthcare). Reference flow cell with no captured mAb was also used. Serial dilutions of Her3-his(cat10201-H08H, SinoBiological), and buffer blanks were injected in multiple cycles over the captured mAbs and reference surfaces for association followed by dissociation. The surfaces were regenerated with an injection of 3 M MgCl2 after each cycle. Double-referenced titration data was globally fit to a 1:1 Langmuir binding model to determine the association rate constant, ka (M−1 s−1), and the dissociation rate constant, kd (s−1), using the BIAcore Insight Evaluation Software version 2.0 (GE Healthcare). The equilibrium dissociation constant was calculated as KD(M)=kd/ka."}, "[1]": {"target": "T2, human HER3 (native, on A375 cells) (human, UniProt P21860 20-1342)", "T2 construct": "whole, on cells; also called native Her3; human native Her3", "experiment": "flow cytometry (FACS) on A375 cells, anti-human IgG Alexa Fluor 647 detection, 4-parameter fit", "description": "Cell fluorescence was quantified using a flow cytometer (Guava easyCyte 8HT, Merck-Millipore, USA). EC50 values for dose-dependent binding to human native Her3 were determined by fitting the dose-response data to the four-parameter logistic model with GraphPad Prism."}}, "data": [{"binder": "Patritumab (antibody, V domains shown) VH: QVQLQQWGAGLLKPSETLSLTCAVYGGSFSGYYWSWIRQPPGKGLEWIGEINHSGSTNYNPSLKSRVTISVETSKNQFSLKLSSVTAADTAVYYCARDKWTWYFDLWGRGTLVTVSS VL: not shown", "values": [{"measurement": "Kd", "setting": "hHER3-his", "value": 1.51, "unit": "nM"}, {"measurement": "EC50", "setting": "[1]", "value": 0.59, "unit": "nM"}]}, {"binder": "mAb10 (antibody, V domains shown, Produced from heavy chain and kappa chain plasmids in CHO cells) VH: EVQLLESGGGLVQPGGSLRLSCAVSGGSFSGYYWSWIRQAPGKGLEWIGEINHSGSTNYNPSLKSRFTISVDNSKNTFYLQMNSLRAEDTAVYYCARDKWTWYFDLWGRGTLVTVSS VL: not shown", "values": [{"measurement": "Kd", "setting": "hHER3-his", "value": 2.52, "unit": "nM"}, {"measurement": "EC50", "setting": "[1]", "value": 0.83, "unit": "nM"}]}]}
